The values that follow come from patent US20110262445A1 (CEPHALON AUSTRALIA, published 2011).

Assay [1] has as its target T1, human IL-12 (human, UniProt P29460 23-328; P29459 23-219).
T1 construct: Recombinant (Peprotech); FLAG-tagged IL-12 in the flow cytometry assays, biotinylated in the IL-12Rβ2 assay; also called hIL-12
T1 sequence 1: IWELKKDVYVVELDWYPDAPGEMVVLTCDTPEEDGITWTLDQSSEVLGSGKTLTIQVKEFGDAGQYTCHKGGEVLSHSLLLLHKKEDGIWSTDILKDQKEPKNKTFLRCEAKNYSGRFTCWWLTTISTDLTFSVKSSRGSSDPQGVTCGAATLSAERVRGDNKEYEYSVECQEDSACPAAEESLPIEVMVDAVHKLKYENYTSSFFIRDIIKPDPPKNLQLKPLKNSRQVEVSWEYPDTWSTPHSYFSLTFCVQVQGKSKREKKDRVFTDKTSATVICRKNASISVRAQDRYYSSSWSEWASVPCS
T1 sequence 2: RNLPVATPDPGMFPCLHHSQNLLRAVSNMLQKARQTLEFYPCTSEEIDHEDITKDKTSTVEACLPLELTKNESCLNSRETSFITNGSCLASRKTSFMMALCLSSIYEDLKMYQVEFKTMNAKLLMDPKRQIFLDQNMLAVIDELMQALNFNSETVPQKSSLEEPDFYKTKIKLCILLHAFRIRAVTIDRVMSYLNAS
The assay can be described thus: ELISA, coated IL-12. The essentials:
(§1)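 Maxisorp plates were coated overnight at 4° C with cytokine at 1 μg/mL in carbonate buffer pH 9.6, then blocked for 1 hour at 25° C with 1% BSA in PBS. Antibody titrations were allowed to bind for 1 hour at 25° C and detected with goat anti-human IgG or anti-murine immunoglobulin HRP (1:2000, 1 hour), followed by TMB development stopped with 1M HCl. Binding is reported as absorbance. Readings were taken at 450 nm against a 620 nm reference.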

The target in assay [2] is T2, human IL-23 (human, UniProt P29460 23-328; Q9NPF7 20-189).
T2 construct: Recombinant (Ebioscience); HIS-tagged in flow cytometry, biotinylated in some assays; also called hIL-23; rhIL-23
T2 sequence 1: T1 sequence 1
T2 sequence 2: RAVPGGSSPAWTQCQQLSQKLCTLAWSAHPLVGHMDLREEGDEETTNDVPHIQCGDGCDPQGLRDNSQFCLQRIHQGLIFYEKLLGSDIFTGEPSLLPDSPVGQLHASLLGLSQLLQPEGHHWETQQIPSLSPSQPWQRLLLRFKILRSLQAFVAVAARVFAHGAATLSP
The assay can be described thus: ELISA, coated IL-23. In a few lines: as §1
On the technique in general: An ELISA detects its analyte on a solid surface through an enzyme-linked reagent.

Assay [3] deals with T1, human IL-12. The assay can be described thus: SPR, IgG on Protein A. Here is the method: (§2) Using SPR technology the kₐ and kd and the KD of various humanized antibodies was determined.
(§3) Using a SPR 3000, Protein A was immobilized onto FC1 and FC2 (or alternatively FC3 and FC4) of a CM5 research grade sensor chip using amine coupling, giving approximately […] RU. FC1 was used a blank throughout the experiments. The experiments were run in HBS-P buffer (SPR). At a flow rate of 20 μl/min, 20 μl of 5 μg/mL of antibody was passed over FC2. IL-12, IL-23 or IL-12p40 (Peprotech) were passed over the surface of FC1 and FC2 at concentrations ranging from 66 nM to 2 nM. Regeneration of the surface was performed using 10 mM Glycine, pH 1.0. The sensorgram data from FC2 was subtracted from FC1 and a buffer only control. The curves were fitted using a 1:1 Langmuir equation to generate the kd, ka and KD values. All curves were fitted with a χ² of less then 2.0 where possible.

The target of assay [4] is T2, human IL-23. The assay can be described thus: SPR, IgG on Protein A. Here is the method: as §2, §3

Where a chain is given by its changes, count along the chain named.

B1: Antibody 93 (antibody, human IgG1, kappa, V domains shown)
VH: EVQLVQSGAEVKKPGATVKISCKASGYTFSDYYLHWVRQAPEKGLEWMGWIDPENGDTEYAPKFQGRVTITADTSTDTGYLELSSLRSEDTAVYYCNANKELRYFDVWGQGTLVTVSS
VL: DIQMTQSPSSVSASVGDRVTITCRASQSISINLHWYQQKPGKAPKLLIYFASQSISGVPSRFSGSGSGTDFSLTINSLQPEDFARYYCQQSNSFPLTFGGGTKVEIKR
On to B1, for which the binding result in assay [1] and in assay [2] was “binds” each time.

B2: Antibody 182 (antibody, human IgG1, kappa, V domains shown)
VH: B1 VH with F29L, Y60H, N97A
VL: B1 VL with P80T, R85T
A word on the Kd: it is a measure of binding affinity in units of concentration. A low value points to tighter binding. The term koff denotes a measure of how fast the partners let go of each other. Lower therefore signals slow dissociation. For orientation: kon means the rate constant with which the complex forms. Low readings indicate slow association, high ones fast association. In assay [3], B2 had a Kd of 0.0344 nM, a dissociation rate constant (koff) of 0.000214 s⁻¹ and an on-rate constant (kon) of 6.23e+06 M⁻¹ s⁻¹. Also, in assay [4], the dissociation constant (Kd) came out at 0.0246 nM, the koff was determined as 0.000129 s⁻¹ and the on-rate (kon) amounted to 5.27e+06 M⁻¹ s⁻¹.

B3: Antibody 101 (antibody, human IgG1, kappa)
heavy chain: not shown
light chain: DIQMTQSPSSVSASVGDRVTITCRASQSISINLHWYQQKPGKAPKLLIYFASQSISGVPSRFSGSGSGTDFSLTINSLQPEDFARYYCQQSNSFPLTFGGGTKVEIKRTVAAPSVFIFPPSDEQLKSGTASVVCLLNNFYPREAKVQWKVDNALQSGNSQESVTEQDSKDSTYSLSSTLTLSKADYEKHKVYACEVTHQGLSSPVTKSFNRGEC
For B3, the binding result in assay [1] and in assay [2] was “binds” throughout.

B4: Antibody 98 (antibody, human IgG1, kappa)
heavy chain: not shown
light chain: B3 light chain
Take B4: the binding result in assay [1] and in assay [2] was “binds” throughout.

B5: Antibody 99 (antibody, human IgG1, kappa)
heavy chain: not shown
light chain: B3 light chain
Consider B5, for which the binding result in assay [1] and in assay [2] was “binds” throughout.

B6: Antibody 102 (antibody, human IgG1, kappa)
heavy chain: not shown
light chain: B3 light chain
B6: the binding result in assay [1] and in assay [2] was “binds” in each case.

B7: Antibody 177 (antibody, human IgG1, kappa, V domains shown)
VH: B1 VH with Y60S, N97A
VL: B1 VL with P80T, R85T
With B7, in assay [3], binding was put at a Kd of 0.046 nM, the dissociation rate constant (koff) worked out at 0.000212 s⁻¹ and the kon stood at 4.61e+06 M⁻¹ s⁻¹. In assay [4], this molecule registered a dissociation constant Kd of 0.0373 nM, a koff of 0.000128 s⁻¹ and a kon of 3.43e+06 M⁻¹ s⁻¹.

B8: Antibody 97 (antibody, human IgG1, kappa)
heavy chain: not shown
light chain: B3 light chain
Take B8: the binding result in assay [1] and in assay [2] was “binds” each time.

B9: Antibody 180 (antibody, human IgG1, kappa, V domains shown)
VH: B1 VH with F29L, Y60S, N97A
VL: B1 VL with P80T, R85T
In assay [3], B9 returned an equilibrium dissociation constant (Kd) of 0.0325 nM, a koff of 0.000173 s⁻¹ and a kon of 5.31e+06 M⁻¹ s⁻¹. Besides, in assay [4], the Kd was 0.0297 nM, the koff is 9.27e-05 s⁻¹ and the on-rate constant (kon) worked out at 3.12e+06 M⁻¹ s⁻¹.

B10: Antibody 103 (antibody, human IgG1, kappa)
heavy chain: not shown
light chain: B3 light chain
Turning to B10, the binding result in assay [1] and in assay [2] was “binds” in each case.

B11: Antibody 100 (antibody, human IgG1, kappa)
heavy chain: not shown
light chain: B3 light chain
For B11, the binding result in assay [1] and in assay [2] was “binds” in each case.

B12: Antibody 94 (antibody, human IgG1, kappa, V domains shown)
VH: B1 VH with A98R
VL: B1 VL
For the molecule B12, the binding result is reported as “no binding (tested: not given)” in assay [1] and “binds” in assay [2].

B13: Antibody 181 (antibody, human IgG1, kappa, V domains shown)
VH: B1 VH with Y60H, N97A
VL: B1 VL with P80T, R85T
In assay [3], B13 displayed a Kd of 0.0681 nM, a dissociation rate constant (koff) of 0.000244 s⁻¹ and a kon of 3.57e+06 M⁻¹ s⁻¹. In assay [4], this molecule gave a dissociation constant Kd of 0.0424 nM, a koff of 0.000173 s⁻¹ and a kon of 4.09e+06 M⁻¹ s⁻¹.

B14: Antibody 205 (antibody, human IgG1, kappa, V domains shown)
VH: QVQLVQSGAEVKKPGASVKVSCKASGYTFTDYYLHWVRQAPGRGLEWMGWIDPENGDTEYAPKFQGRVTMTTDTSTSTAYMELRSLRSDDTAVYYCAANKELRYFDVWGQGTMVTVSS
VL: EIVMTQSPATLSVSPGERATLSCRASQSISINLHWYQQKPGQAPRLLIYFASQSISGIPARFSGSGSGTEFTLTISSLQSEDFAVYYCQQSNSFPLTFGGGTKVEIKR
For the molecule B14, in assay [3], binding was put at a Kd of 0.157 nM, the koff came to 0.000581 s⁻¹ and the kon stood at 3.7e+06 M⁻¹ s⁻¹. In assay [4], this molecule came in with a Kd of 0.0862 nM, a koff of 0.000415 s⁻¹ and a kon of 4.81e+06 M⁻¹ s⁻¹.

B15: Antibody 198 (antibody, human IgG1, kappa, V domains shown)
VH: B14 VH with T28A, R43Q
VL: B1 VL with P80T, R85T
In assay [3], B15 displayed a Kd of 0.158 nM, a dissociation rate constant (koff) of 0.000594 s⁻¹ and a kon of 3.75e+06 M⁻¹ s⁻¹. In assay [4], this molecule had a Kd of 0.0877 nM, a koff of 0.000409 s⁻¹ and a kon of 4.65e+06 M⁻¹ s⁻¹.

B16: Antibody 195 (antibody, human IgG1, kappa, V domains shown)
VH: B14 VH with R43Q, Y60H
VL: B1 VL with P80T, R85T
On to B16, for which, in assay [3], binding was characterised by a dissociation constant (Kd) of 0.103 nM, the off-rate (koff) came to 0.000274 s⁻¹ and the kon was 2.65e+06 M⁻¹ s⁻¹. In assay [4], this molecule displayed a dissociation constant (Kd) of 0.05 nM, a koff of 0.000202 s⁻¹ and a kon of 4.03e+06 M⁻¹ s⁻¹.

B17: Antibody 190 (antibody, human IgG1, kappa, V domains shown)
VH: B14 VH with R43Q, A97N
VL: B1 VL with P80T, R85T
In the case of B17, in assay [3], the affinity, expressed as Kd, was 0.217 nM; the koff was 0.00084 s⁻¹; the kon stood at 3.86e+06 M⁻¹ s⁻¹. In assay [4], the equilibrium dissociation constant (Kd) amounted to 0.142 nM, the off-rate constant (koff) came to 0.000609 s⁻¹ and the association rate constant (kon) was 4.28e+06 M⁻¹ s⁻¹.

B18: Antibody 194 (antibody, human IgG1, kappa, V domains shown)
VH: B14 VH with F29L, R43Q, Y60S
VL: B1 VL with P80T, R85T
In the case of B18, in assay [3], the Kd is 0.0927 nM, the koff was 0.000194 s⁻¹ and the kon came to 2.09e+06 M⁻¹ s⁻¹. Further, in assay [4], the equilibrium dissociation constant (Kd) was 0.041 nM, the dissociation rate constant (koff) was determined as 0.000122 s⁻¹ and the kon came to 2.99e+06 M⁻¹ s⁻¹.

B19: Antibody 192 (antibody, human IgG1, kappa, V domains shown)
VH: B14 VH with F29L, R43Q
VL: B1 VL with P80T, R85T
In assay [3], B19 gave a dissociation constant Kd of 0.0855 nM, an off-rate constant (koff) of 0.000356 s⁻¹ and a kon of 4.16e+06 M⁻¹ s⁻¹. In assay [4], this molecule came in with a dissociation constant Kd of 0.0794 nM, a koff of 0.000211 s⁻¹ and a kon of 2.66e+06 M⁻¹ s⁻¹.

B20: Antibody 193 (antibody, human IgG1, kappa, V domains shown)
VH: B14 VH with R43Q, Y60S
VL: B1 VL with P80T, R85T
Take B20: in assay [3], the affinity, expressed as Kd, was 0.0794 nM; the koff was determined as 0.000206 s⁻¹; the kon came out at 2.6e+06 M⁻¹ s⁻¹.
